# Experimental data published in patent US20160166638A1, “LACTOFERRIN-OSTEOPONTIN-IRON COMPLEX” (NESTEC S.A., priority 2013, published 2016).
# B1: Lactoferrin-Fe: Lactoferrin obtained from Armor proteins, supplied with some iron complexed to it; comparison fortificant (protein, UniProt P24627 20-708, looked up)
# Lactotransferrin: APRKNVRWCTISQPEWFKCRRWQWRMKKLGAPSITCVRRAFALECIRAIAEKKADAVTLDGGMVFEAGRDPYKLRPVAAEIYGTKESPQTHYYAVAVVKKGSNFQLDQLQGRKSCHTGLGRSAGWIIPMGILRPYLSWTESLEPLQGAVAKFFSASCVPCIDRQAYPNLCQLCKGEGENQCACSSREPYFGYSGAFKCLQDGAGDVAFVKETTVFENLPEKADRDQYELLCLNNSRAPVDAFKECHLAQVPSHAVVARSVDGKEDLIWKLLSKAQEKFGKNKSRSFQLFGSPPGQRDLLFKDSALGFLRIPSKVDSALYLGSRYLTTLKNLRETAEEVKARYTRVVWCAVGPEEQKKCQQWSQQSGQNVTCATASTTDDCIVLVLKGEADALNLDGGYIYTAGKCGLVPVLAENRKSSKHSSLDCVLRPTEGYLAVAVVKKANEGLTWNSLKDKKSCHTAVDRTAGWNIPMGLIVNQTGSCAFDEFFSQSCAPGADPKSRLCALCAGDDQGLDKCVPNSKEKYYGYTGAFRCLAEDVGDVAFVKNDTVWENTNGESTADWAKNLNREDFRLLCLDGTRKPVTEAQSCHLAVAPNHAVVSRSDRAAHVKQVLLHQQALFGKNGKNCPDKFCLFKSETKNLLFNDNTECLAKLGGRPTYEEYLGTEYVTAIANLKKCSTSPLLEACAFLTR
# modifications: iron complex
# notes: Lactoferrin obtained from Armor proteins, supplied with some iron complexed to it; comparison fortificant
# Assay: Colour change of iron fortified strawberry-banana yoghurt after flash pasteurization (CIELAB colorimetry)
# Assay type: physicochemical
# Conditions: colour difference vs yoghurt with no iron salts; Jogolino Strawberry/Banana yoghurt, approx. 0.8 mg iron per 100 g; flash pasteurized at 105° C. for 2 minutes
# Description: Commercial yoghurt, Nestlé Jogolino™ Strawberry/Banana yoghurt containing 15% banana puree and 10% strawberry puree, was iron fortified by the addition of different iron containing materials to 5 kg yoghurt as reported in the table below. The amounts were chosen to provide approximately 0.8 mg iron per 100 g yoghurt. A 100 g serving of yoghurt with that level of iron would provide 15% of the recommended daily amount of iron for an infant [Official Journal of the European Union, Commission Directive 2006/125/EC].
# For the lactoferrin-osteopontin-iron complex (Trial B), the powder from Example 1 was added to yoghurt at a level of 28 g per 5 kg yoghurt. The resulting yoghurt composition comprised 5.6 g powder per kg which is 4 g LF-OPN-Fe complex per kg.
# The yoghurts were flash pasteurized at 105° C. for 2 minutes. Colour measurements were performed in 1×1 cm polystyrene cuvettes using an X-Rite ColorEye 7000A colorimeter. The colorimeter was set up with a D65 light source, 10 degree observer angle and with specular component included. The colour difference between the yoghurt with no iron salts and the iron fortified yoghurt was measured for each iron salt and expressed as ΔEab* using the CIELAB colour scale.
molecule,measurement,value
B1,ΔEab*,5.64
